Results published in FireProtDB (doi:10.1006/jmbi.1995.0599).

Conditions: Homo sapiens; pH 2.7; Thermal; DSC; glycine 0.05 M; reversible: yes; whole UniProt chain shown

B1: Lysozyme C wild type, P61626 (protein)
chain: MKALIVLGLVLLSVTVQGKVFERCELARTLKRLGMDGYRGISLANWMCLAKWESGYNTRATNYNAGDRSTDYGIFQINSRYWCNDGKTPGAVNACHLSCSALLQDNIADAVACAKRVVRDPQGIRAWVAWRNRCQNRDVRQYVQGCGV
- Tm: 64.9 °C
- heat capacity change of unfolding: 1.58 kcal/mol/K
- unfolding enthalpy (calorimetric): 114 kcal/mol
- unfolding enthalpy (van 't Hoff): 120 kcal/mol
